From patent publication US12723255B2, “Herbicide tolerance genes and methods of use thereof” (priority 2014, dated 2026)
Values joined by “and” are separate entries in the source; they are usually repeats but may differ in a detail not shown here. Identical values can stand only once. Like-named read-outs stand apart in the source and are kept apart here.

B1: MON-HT55: engineered oxygenase protein, amino acid sequence SEQ ID NO:11 (protein)
chain: MHAALSPLSQRFERIAVQPLTGVLGAEITGVDLREPLDDSTWNEILDAFHTYQVIYFPGQAITNEQHIAFSRRFGPVDPVPLLKSIEGYPEVQMIRREANESGRVIGENWHTDSTFLDAPPAAVVMYAKEIPPYGGDTLFTSMYTAWETLSPTMQATIEGLNVVHSATRVFGSLYQAQNRRFSNTSVKVMDVDAGDRETVHPLVVTHPETGRKGLYVNQVYCQRIEGMSEKESEPLLSFLFAHATKPEFTCRVRWQEGDVLVWDNLCTQHYAVPDYAGKFRYLTRTTVGGVRPAR
B2: MON-HT1: engineered oxygenase protein, amino acid sequence SEQ ID NO:14 (protein)
chain: MHAALTPLTNKYRFIDVQPLTGVLGAEITGVDLREPLDDSTWNEILDAFHTYQVIYFPGQAITNEQHIAFSRRFGPVDPVPILKSIEGYPEVQMIRREANESSRFIGDDWHTDSTFLDAPPAAVVMRAIEVPEYGGDTGFLSMYSAWETLSPTMQATIEGLNVVHSATKVFGSLYQATNWRFSNTSVKVMDVDAGDRETVHPLVVTHPVTGRRALYCNQVYCQKIQGMTDAESKSLLQFLYEHATKFDFTCRVRWKKDQVLVWDNLCTMHRAVPDYAGKFRYLTRTTVAGDKPSR
B3: MON-HT51: engineered oxygenase protein, amino acid sequence SEQ ID NO:1 (protein)
chain: MHAALSPLSQRFERIAVQPLTGVLGAEITGVDLREPLSDSTWNEILDAFHTYQVIYFPGQAITNEQHIAFSRRFGPVDPVPLLKSIEGYPEVQMIRREANESGRVIGDDWHTDSSFLDAPPAAVVMRAIDVPEHGGDTGFLSMYTAYDALSDGLKKLISGLNVVHSATRVFGSLYQAQNRRFSNTSVKVMDVADGDRETVHPLVVTHPGSGRKGLYVNQVYCQRIEGMSEKESEPLLSFLFAHATKPEFTCRVRWKKDQVLVWDNLCTMHYAINDYHGQTRILHRTTVGGVRPAR

Experiments:
[1] = enzyme kinetic measurements with purified protein; format: biochemical; details: for Km: 0-1280 uM substrate; for Vmax Fenoxaprop / Vmax Fluazifop / Vmax Haloxyfop / Vmax Quizalofop-P: relative values
Protocol: The high-throughput herbicide degradation enzyme assay was designed to assay the enzymatic activity of the engineered proteins towards various herbicides using crude bacterial extract. The engineered protein's oxygenase activity (that is, its enzymatic activity) was measured by an end point colorimetric assay utilizing detection of phenol products through measurement of absorbance at 510 nm from 4-aminoantipyrine and potassium ferricyanide. This assay was based on the assay described in Fukomori and Hausinger, Journal of Biological Chemistry (1993) 268(32):24311-24317. Enzyme reactions were assayed in 96-well plates in a total volume of 150ul that contained: 20 mM MOPS pH 6.75, 50-200 uM NH4FeSO4, 50-200 uM sodium ascorbate, 1 mM alpha-ketoglutarate (aKG), 10 ul of E. coli cell lysate containing expressed engineered protein, and substrate (either an AOPP herbicide or phenoxy acid herbicide). […] Absorbance measurements were made on a standard laboratory spectrometer. Assays were scaled as needed to enhance throughput. Standard curves were generated using purified protein or product standards.
Further protein characterization, such as Km, Vmax, and crystal structure analysis, was performed using the five engineered proteins from Table 2. For this detailed analysis, purified protein was prepared as follows: 2 ml overnight cultures of E. coli expressing a transgene encoding a given MON-HT protein were used to inoculate 500 ml of broth and grown at 37° C. for 4 hours followed by culture at 15° C. for approximately 36 hours. Then 250 ml of the 500 ml bacterial culture was pelleted by centrifugation and resuspended in 25 ml of extraction buffer (20 mM Tris, pH 7.8, 300 mM NaCl, 5 mM beta-mercaptoethanol (BME), 20 mM imidazole (Fluka/Sigma-Aldrich, St. Louis, MO), 125 units/ml of benzonase and 10K units/ml of lysozyme (Novagen, Darmstadt, Germany). The cell slurry was passed through a cell disruptor once at 20000 psi and then this cell lysate was clarified by centrifugation at 35,000×g for 20 min at 4° C. The supernatant containing the soluble His-tagged proteins was used for protein purification. For this purification, the supernatant was applied to a 1 ml HisTrap™ FF column (Nickel Sepharose) (GE Healthcare, Piscataway, NJ) using an AKTaxpress™ system (GE Healthcare, Piscataway, NJ) following the standard manufacturer's protocol. The wash buffer consisted of: 20 mM Tris pH 7.8, 300 mM NaCl, 20 mM imidazole and 5 mM BME. The composition of elution buffer was the same as the wash buffer except with 500 mM imidazole. The eluate from the nickel column was desalted on a Quick Spin Protein Sephadex G-25 fine column (Roche Applied Science, Indianapolis, IN) following the manufacturer's protocol. The eluted protein was in buffer consisting of: 20 mM Tris pH 7.8, 50 mM NaCl and 5 mM BME. Protein extract purity was assessed by SDS-PAGE analysis. Protein concentration was determined by Bradford assay using Bio-Rad Protein Assay dye reagent (Biorad, Hercules, CA, cat no 500-0006).
Purified protein for the five engineered proteins was analyzed using the enzyme assay described in this Example 1, but with four different AOPP herbicides as substrates: quizalofop-P, haloxyfop, fenoxaprop, and fluazifop. Standard curves were generated using 2,4-dichlorophenol (2,4-DCP), which was used to produce a general phenol standard curve. The amount of phenol generated in the assay by the engineered proteins was calculated based on this standard curve. The controls were purified wild-type enzyme, no enzyme, and no substrate. Enzyme kinetic measurements of the five engineered proteins was done using 0, 20, 40, 80, 160, 320, 640, or 1280 uM of quizalofop-P, haloxyfop, fenoxaprop, or fluazifop herbicides.

transgenic maize plants [2] = assay: R1 green house quizalofop-P spray test; format: in vivo; details: R1 maize with CTP; quizalofop-P 1× at V2; eleven days after treatment
From the text: Plant transformation vectors were constructed each comprising a recombinant DNA molecule encoding one of three engineered proteins with the protein-coding sequence optimized for monocot expression, MON-HT51 (SEQ ID NO:3), MON-HT52 (SEQ ID NO:6), and MON-HT55 (SEQ ID NO:13). The vectors were created using different combinations of promoter, leader, intron, and 3′UTR and with and without a CTP operably linked to the protein-coding sequence. Also included in the vectors was a second DNA cassette comprising a cp4-EPSPS coding sequence to be used in transgenic plants for glyphosate tolerance. Immature maize (LH244) embryos were transformed with these vectors using Agrobacterium tumifaciens and standard methods known in the art. Regenerated R0 transgenic plantlets were grown in the green house and sprayed at approximately V2-V4 growth stage with 0.04 or 0.08 lb ai/acre quizalofop-P (AssureTM II, E.I. DuPont), representing 0.5× and 1× rates, respectively. Leaf samples were used to identify transgenic plants with a single copy of the transgenic DNA insert (that is, single event plants). […]
R1 plants expressing MON-HT55 with and without an operably linked CTP were grown in the green house and quizalofop-P herbicide was applied at the V2 growth stage at a rate of 0.08Ib ac/acre (1×). Plants were evaluated for injury eleven days after treatment.

transgenic maize plants [3] = assay: R1 trait efficacy field trial (quizalofop-P and haloxyfop); format: in vivo; details: 2× quizalofop-P pre-plant, 2× haloxyfop V4, 2× quizalofop-P V8
Protocol: To assess the effect of using a CTP to target the engineered protein to the plant cell chloroplast, transgenic plants comprising a transgene insert with and without a CTP operably linked to the protein-coding sequence were compared. […] This unexpected finding was tested again in trait efficacy field trials with R1 plants comprising either MON-HT51 with or without a CTP operably linked to the protein-coding sequence or MON-HT55 with or without a CTP operably linked to the protein-coding sequence. These R1 plants were single-copy, but were still segregating. In this field trial, seed was planted in the field and treated as follows: 2× (0.16 lb ai/acre) quizalofop-P at pre-plant, 2× (0.14 lb ai/acre) haloxyfop at V4 growth stage, then 2× quizalofop-P at V8 growth stage. A higher percentage of plants comprising a CTP operably linked to the protein-coding sequence survived quizalofop-P and haloxyfop applications and had lower injury scores compared to plants not comprising a CTP operably linked to the protein-coding sequence. This confirmed the unexpected finding that a CTP operably linked to the protein-coding sequence confers higher plant tolerance to herbicide application for the engineered proteins.

F1 hybrid maize plants = assay: maize green house tolerance to synthetic auxins; format: in vivo; details: 'A' CTP, Events 1-3 in columns

Molecule | Km ([1]; read-out: Km Fenoxaprop) [µM] | Km ([1]; read-out: Km Fluazifop) [µM] | Km ([1]; read-out: Km Haloxyfop) [µM] | Km ([1]; read-out: Km Quizalofop-P) [µM] | Vmax Fenoxaprop [1] | Vmax Fluazifop [1] | Vmax Haloxyfop [1] | Vmax Quizalofop-P [1] | injury scores (transgenic maize plants [2]) [%] | Average % Herbicide Injury (transgenic maize plants [3]; CTP No) | Average % Herbicide Injury (transgenic maize plants [3]; CTP Yes) | Average maize % crop injury for 4 reps, fluroxypyr (F1 hybrid maize plants; 4X rate 1680 g ae/ha) | Average maize % crop injury for 4 reps, triclopyr (F1 hybrid maize plants; 4X rate 1680 g ae/ha) | Average maize % crop injury for 4 reps, MCPA (F1 hybrid maize plants; 4X rate 3360 g ae/ha, listed as MON-HTl) [%]
B1 | 200 | 50 | 450 | 250 | 450 | 320 | 190 | 320 | ≤ 5 | 49% and 90% | 24% and 25% |  |  | 
B2 |  |  |  |  |  |  |  |  |  |  |  | 20.0% and 21.3% | 26.3% and 37.5% and 35.0% | 20
B3 | 870 | 4 | 250 | 570 | 180 | 12 | 48 | 120 |  | 95% | 35% |  |  | 
